In patent publication US20260158142A1 (published 2026):

Biological target: T1, human amyloid beta (Aβ42), T cell epitope peptide on H2-IAb (mouse)
T1 peptide: KLVFFAEDVGSNKGA
Assay: multimer staining

binding result: recognises
B1: Aβ-Th1 TCR (TCR, V domains shown)
Valpha: QQQVRQSPQSLTVWEGETAILNCSYENSAFDYFPWYQQFPGEGPALLISILSVSNKKEDGRFTIFFNKREKKLSLHIADSQPGDSATYFCAGGDYANKMIFGLGTILRVRP
Vbeta: DPKIIQKPKYLVAVTGSEKILICEQYLGHNAMYWYRQSAKKPLEFMFSYSYQKLMDNQTASSRFQPQSSKKNHLDLQITALKPDDSATYFCASSQDRSYNSPLYFAAGTRLTVT
